Here are results for one substance from PMC10104862.

This test deals with Flag-TRF2 (Telomeric repeat-binding factor 2), wild type (not stated (human or mouse cDNA cloned)) (UniProt Q15554). The test is described as follows: co-IP; 293T or U2OS cells co-transfected with epitope-tagged cDNAs, lysed 48 h later in BCO 300 buffer (20 mM HEPES pH 7.5, 10% glycerol, 1 mM EDTA, 0.1% NP-40); Flag M2 affinity gel; SDS-PAGE and blot.
UniProt Q15554, sequence (Q15554 whole entry): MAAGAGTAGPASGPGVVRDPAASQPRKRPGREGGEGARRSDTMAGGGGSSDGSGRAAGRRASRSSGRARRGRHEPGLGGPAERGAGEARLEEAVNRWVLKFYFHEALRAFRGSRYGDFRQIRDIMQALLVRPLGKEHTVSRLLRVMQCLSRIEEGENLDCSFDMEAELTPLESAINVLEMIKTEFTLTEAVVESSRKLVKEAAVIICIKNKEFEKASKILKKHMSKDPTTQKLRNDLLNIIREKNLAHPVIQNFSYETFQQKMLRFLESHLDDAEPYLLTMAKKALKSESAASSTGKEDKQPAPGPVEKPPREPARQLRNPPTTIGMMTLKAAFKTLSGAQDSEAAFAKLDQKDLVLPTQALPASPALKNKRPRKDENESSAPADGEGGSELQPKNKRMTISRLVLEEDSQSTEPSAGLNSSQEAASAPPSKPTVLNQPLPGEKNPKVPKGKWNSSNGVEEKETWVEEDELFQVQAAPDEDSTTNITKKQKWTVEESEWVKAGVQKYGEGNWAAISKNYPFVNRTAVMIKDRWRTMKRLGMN

Take “ADAR1p110, wild type (expressed construct) (natural protein)”: the fold binding relative to TRF2^ΔB is 3 fold.
